In article PMC11089037, “Structural basis of negative regulation of CRISPR-Cas7-11 by TPR-CHAT”:

B1: single spacer pre-crRNA (ssRNA)
RNA: GGUUGGAAAGCCGGUUUUCUUUGAUGUCACGGAACCUUUGUUGUCUUCGACAUGGGUAAUCCUCAU

Legend:
[1] = target: DiCas7-11 (Desulfonema ishimotonii, UniProt A0A401FT36 1-1601); experiment: cryo-EM; EMSA: 40 mM Tris-HCl pH 7.5, 60 mM NaCl, 6 mM MgCl2, 30 min at 4 C; 15% native PAGE; cryo-EM samples: 20 mM HEPES-NaOH pH 8.0, 300 mM NaCl, 0.5 mM DTT; conditions: protein: recombinant; tags: N-terminal 8xHis-SUMO-TEV; single strand, V-shaped 5' repeat
Sequence of DiCas7-11 (A0A401FT36 entry or part of it): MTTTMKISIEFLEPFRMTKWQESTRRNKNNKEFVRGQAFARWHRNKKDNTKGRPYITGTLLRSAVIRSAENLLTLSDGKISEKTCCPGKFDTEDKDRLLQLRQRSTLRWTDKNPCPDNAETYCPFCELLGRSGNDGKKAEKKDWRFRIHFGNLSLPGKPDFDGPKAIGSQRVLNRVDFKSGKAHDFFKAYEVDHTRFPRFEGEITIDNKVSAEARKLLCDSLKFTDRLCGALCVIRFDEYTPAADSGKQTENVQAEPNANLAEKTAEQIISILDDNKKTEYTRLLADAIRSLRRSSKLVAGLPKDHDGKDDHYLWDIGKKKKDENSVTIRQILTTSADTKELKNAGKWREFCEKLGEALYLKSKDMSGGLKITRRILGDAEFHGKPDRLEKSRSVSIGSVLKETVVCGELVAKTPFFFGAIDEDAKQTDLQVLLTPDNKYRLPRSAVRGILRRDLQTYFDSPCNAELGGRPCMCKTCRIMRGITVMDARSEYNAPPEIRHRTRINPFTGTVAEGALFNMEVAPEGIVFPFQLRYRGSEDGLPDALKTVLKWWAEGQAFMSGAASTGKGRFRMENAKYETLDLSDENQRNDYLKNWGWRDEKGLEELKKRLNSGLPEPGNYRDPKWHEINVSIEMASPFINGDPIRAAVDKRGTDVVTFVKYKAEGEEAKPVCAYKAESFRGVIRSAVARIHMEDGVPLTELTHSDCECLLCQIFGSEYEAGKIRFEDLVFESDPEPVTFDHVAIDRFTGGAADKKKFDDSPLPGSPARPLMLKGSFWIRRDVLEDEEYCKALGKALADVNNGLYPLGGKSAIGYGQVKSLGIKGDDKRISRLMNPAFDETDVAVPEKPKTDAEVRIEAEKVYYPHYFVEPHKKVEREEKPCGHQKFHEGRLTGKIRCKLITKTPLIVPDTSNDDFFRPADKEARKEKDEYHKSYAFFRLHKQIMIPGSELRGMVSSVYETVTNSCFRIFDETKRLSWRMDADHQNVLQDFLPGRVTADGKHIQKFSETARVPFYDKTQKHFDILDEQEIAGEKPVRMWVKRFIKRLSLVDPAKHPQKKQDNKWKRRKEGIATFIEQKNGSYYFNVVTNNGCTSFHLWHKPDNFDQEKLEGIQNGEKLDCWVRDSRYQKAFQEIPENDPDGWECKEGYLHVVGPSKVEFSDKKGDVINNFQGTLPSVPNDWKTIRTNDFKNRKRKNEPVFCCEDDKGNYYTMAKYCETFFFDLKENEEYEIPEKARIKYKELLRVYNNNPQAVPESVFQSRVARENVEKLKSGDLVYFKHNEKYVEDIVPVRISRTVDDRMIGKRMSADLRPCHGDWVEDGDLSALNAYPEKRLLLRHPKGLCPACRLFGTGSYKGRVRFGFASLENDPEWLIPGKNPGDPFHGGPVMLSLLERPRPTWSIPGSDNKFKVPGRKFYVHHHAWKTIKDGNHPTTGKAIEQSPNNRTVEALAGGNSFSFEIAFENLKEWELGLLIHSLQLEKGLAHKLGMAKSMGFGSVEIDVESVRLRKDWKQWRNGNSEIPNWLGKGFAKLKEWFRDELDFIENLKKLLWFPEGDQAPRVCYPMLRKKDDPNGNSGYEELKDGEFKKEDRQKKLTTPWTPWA

[2] = target: DiCas7-11;DiTPR-CHAT NTD (Desulfonema ishimotonii;Desulfonema …, UniProt A0A401FT36;A0A401FT52 1-1601;1-65, |); experiment: cryo-EM; with TPR-CHAT NTD; EMSA: 40 mM Tris-HCl pH 7.5, 60 mM NaCl, 6 mM MgCl2, 30 min at 4 C; 15% native PAGE; cryo-EM samples: 20 mM HEPES-NaOH pH 8.0, 300 mM NaCl, 0.5 mM DTT; conditions: protein: recombinant;recombinant; tags: N-terminal 8xHis-SUMO-TEV;C-terminal 2xStrep; copies: 1;1; single strand, V-shaped 5' repeat
Sequence of DiCas7-11;DiTPR-CHAT NTD (chain, as listed by the source |, chain 1 of 2): as the sequence (A0A401FT36 entry or part of it) above
Sequence of DiCas7-11;DiTPR-CHAT NTD (chain, as listed by the source |, chain 2 of 2): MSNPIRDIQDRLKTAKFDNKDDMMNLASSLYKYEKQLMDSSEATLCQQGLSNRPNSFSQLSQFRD

[3] = target: DiCas7-11;DiTPR-CHAT (Desulfonema ishimotonii;Desulfonema …, UniProt A0A401FT36;A0A401FT52 1-1601;1-751, |); experiment: cryo-EM; with full-length TPR-CHAT; EMSA: 40 mM Tris-HCl pH 7.5, 60 mM NaCl, 6 mM MgCl2, 30 min at 4 C; 15% native PAGE; cryo-EM samples: 20 mM HEPES-NaOH pH 8.0, 300 mM NaCl, 0.5 mM DTT; conditions: protein: recombinant;recombinant; tags: N-terminal 8xHis-SUMO-TEV;C-terminal 2xStrep; copies: 1;1; single strand, V-shaped 5' repeat
Sequence of DiCas7-11;DiTPR-CHAT (chain, as listed by the source |, chain 1 of 2): as the sequence (A0A401FT36 entry or part of it) above
Sequence of DiCas7-11;DiTPR-CHAT (chain, as listed by the source |, chain 2 of 2): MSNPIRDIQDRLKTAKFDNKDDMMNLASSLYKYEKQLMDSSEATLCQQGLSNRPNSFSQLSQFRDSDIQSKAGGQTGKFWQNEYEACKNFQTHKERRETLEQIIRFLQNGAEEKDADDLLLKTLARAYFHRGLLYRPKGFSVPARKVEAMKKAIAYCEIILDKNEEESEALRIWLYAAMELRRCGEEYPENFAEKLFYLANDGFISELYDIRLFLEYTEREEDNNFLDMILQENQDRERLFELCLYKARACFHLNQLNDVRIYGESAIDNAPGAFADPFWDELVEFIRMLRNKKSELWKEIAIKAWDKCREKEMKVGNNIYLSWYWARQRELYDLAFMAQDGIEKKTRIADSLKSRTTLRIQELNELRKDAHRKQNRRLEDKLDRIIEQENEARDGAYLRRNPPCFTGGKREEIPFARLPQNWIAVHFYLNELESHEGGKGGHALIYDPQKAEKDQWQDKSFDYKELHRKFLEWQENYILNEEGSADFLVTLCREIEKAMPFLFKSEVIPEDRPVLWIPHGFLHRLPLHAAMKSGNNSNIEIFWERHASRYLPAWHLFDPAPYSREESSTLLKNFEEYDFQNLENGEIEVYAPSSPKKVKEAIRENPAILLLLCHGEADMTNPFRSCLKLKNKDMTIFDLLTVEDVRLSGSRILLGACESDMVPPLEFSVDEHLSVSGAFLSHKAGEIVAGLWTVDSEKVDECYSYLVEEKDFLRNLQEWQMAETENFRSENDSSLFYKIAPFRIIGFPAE

[4] = target: DiCas7-11Inactive (Desulfonema ishimotonii, UniProt A0A401FT36 1-1601, D429A;D654A); experiment: cryo-EM; pre-crRNA at 1:2 molar ratio; target RNA not seen in the map; EMSA: 40 mM Tris-HCl pH 7.5, 60 mM NaCl, 6 mM MgCl2, 30 min at 4 C; 15% native PAGE; cryo-EM samples: 20 mM HEPES-NaOH pH 8.0, 300 mM NaCl, 0.5 mM DTT; conditions: protein: recombinant; tags: N-terminal 8xHis-SUMO-TEV
Sequence of DiCas7-11Inactive (A0A401FT36 entry or part of it D429A;D654A): as the sequence (A0A401FT36 entry or part of it) above, with D429A, D654A counted along it

Binder | binding result [1] | binding result [2] | binding result [3] | binding result [4]
UUGAUGUCACGGAACCUUUGUUGUCUUCGACAUGGGUA (structured_RNA) [mature crRNA in cryo-EM structures, U(-15)-A(23)] | binds | binds | binds | 
B1 |  |  |  | binds
